Substitutions are numbered along the chain they refer to. “Also recorded” adds a separate entry of the source. Like-named read-outs stand apart in the source and are kept apart here.
B1: 2G9: anti-MET camelid VHH single-domain antibody from phage display, amino acid sequence SEQ ID NO:26 (protein)
VHH: EVQLVESGGALVQPGGSLRLSCAASGFTFGAYDMVWVRHATGKGPEWISFISNGGEEVSYASSVKDRFTISRDNAQNMLYLQMNNLKPEDTAVYYCARSTDVSPGLSSWWTYEYDVWGQGTLVTVSS
B2: 1E7: anti-MET camelid VHH single-domain antibody from phage display, amino acid sequence SEQ ID NO:22 (protein)
VHH: EVQLVESGGGLVQPGGSLRLSCEASGFNFERYDMSWVRQAPGKGPEWVSRLNSFGRSTYYLDSVKGRFTVSRDNAQNMLYLQMNNLKPEDTAVYYCARSTDVSPGLSSWWTYEYDVWGQGTQVTVSS
B3: 1A2: anti-MET camelid VHH single-domain antibody from phage display, amino acid sequence SEQ ID NO:24 (protein)
VHH: B2 VHH with V2A, N74T, Q76K, N77S, M78T, L79F, T91A, A92G

Key:
[1] = tested on: MET, AKT and ERK phosphorylation; test: Western blot of MET signaling, NSCLC and HeLa cell lines; assay type: cell-based, human; details: 5 nM, 4 h, positive control
Procedure: To determine if 1E7-Fc by itself was a therapeutic and inhibited MET signaling, as has been seen with other MET antibodies such as onartuzumab and emibetuzumab (De Mello et al. 2020), we performed a cell proliferation assay and Western blot to query effects of 1E7-Fc on cell behavior and downstream signaling pathways. Cell viability was measured using a panel of the same four cell lines. […] In contrast, treatment with the FDA-approved MET TKI, capmatinib, blocked MET, AKT, and ERK phosphorylation, as anticipated (FIG. 4B).
Cells were seeded in 10 cm dishes and treated with either control (PBS), 10 nM, or 100 nM 1E7-Fc when cells were reached about 75% confluency, and then cells were harvested 4 h after treatment. Five nM Capmatinib was used as a positive control. Cell lysates were generated as previously described (SenthilKumar et al. 2020).

[2] = tested on: MET, AKT and ERK phosphorylation; test: Immunoblot of MET downstream signaling, Detroit 562 and T-47D; assay type: cell-based, human; details: 5 nM, positive control
Procedure: To determine if 1E7-Fc by itself was therapeutic and inhibited MET signaling, both cell proliferation assays and western blotting examining MET downstream signaling were evaluated in Detroit […] cell and T-47D as a negative control. The MET tyrosine kinase inhibitor capmatinib was used as a positive control for MET downstream signaling.
Cells were seeded in 10-cm dishes and treated with either control (i.e., PBS), 10 nM, or 100 nM 1E7-Fc when cells reached about 75% confluency, and then cells were harvested 4, 24, or 48 h after treatment. Capmatinib (5 nM) was used as a positive control for inhibition of MET signaling. Cell lysates were prepared as previously described (Könning et al. 2017). Equal amounts of protein were analyzed by sodium dodecyl-sulfate polyacrylamide gel electrophoresis (SDS-PAGE), transferred to polyvinylidene fluoride membranes, and probed with specific primary antibodies. Targets were detected with horseradish peroxidase (HRP)-conjugated secondary antibodies (BioRad) using Enhanced Chemiluminescence western blot substrates (Pierce) and imaged on a LI-COR Odyssey Fc. The specific antibodies are as listed: MET, phospho-MET (Tyr1234/1235), AKT, phosphor-AKT (Ser473), p44/42 MAPK (Erk1/2), phosphor-p44/42 MAPK (Erk1/2) *Thr202/Try204), GAPDH.

murine MET = molecular target: T1, murine MET (Mus musculus, UniProt P16056); test: Dilution ELISA counter screen on murine MET; assay type: binding
T1 construct: biotin (biotinylated)
T1 sequence (P16056 25-1379): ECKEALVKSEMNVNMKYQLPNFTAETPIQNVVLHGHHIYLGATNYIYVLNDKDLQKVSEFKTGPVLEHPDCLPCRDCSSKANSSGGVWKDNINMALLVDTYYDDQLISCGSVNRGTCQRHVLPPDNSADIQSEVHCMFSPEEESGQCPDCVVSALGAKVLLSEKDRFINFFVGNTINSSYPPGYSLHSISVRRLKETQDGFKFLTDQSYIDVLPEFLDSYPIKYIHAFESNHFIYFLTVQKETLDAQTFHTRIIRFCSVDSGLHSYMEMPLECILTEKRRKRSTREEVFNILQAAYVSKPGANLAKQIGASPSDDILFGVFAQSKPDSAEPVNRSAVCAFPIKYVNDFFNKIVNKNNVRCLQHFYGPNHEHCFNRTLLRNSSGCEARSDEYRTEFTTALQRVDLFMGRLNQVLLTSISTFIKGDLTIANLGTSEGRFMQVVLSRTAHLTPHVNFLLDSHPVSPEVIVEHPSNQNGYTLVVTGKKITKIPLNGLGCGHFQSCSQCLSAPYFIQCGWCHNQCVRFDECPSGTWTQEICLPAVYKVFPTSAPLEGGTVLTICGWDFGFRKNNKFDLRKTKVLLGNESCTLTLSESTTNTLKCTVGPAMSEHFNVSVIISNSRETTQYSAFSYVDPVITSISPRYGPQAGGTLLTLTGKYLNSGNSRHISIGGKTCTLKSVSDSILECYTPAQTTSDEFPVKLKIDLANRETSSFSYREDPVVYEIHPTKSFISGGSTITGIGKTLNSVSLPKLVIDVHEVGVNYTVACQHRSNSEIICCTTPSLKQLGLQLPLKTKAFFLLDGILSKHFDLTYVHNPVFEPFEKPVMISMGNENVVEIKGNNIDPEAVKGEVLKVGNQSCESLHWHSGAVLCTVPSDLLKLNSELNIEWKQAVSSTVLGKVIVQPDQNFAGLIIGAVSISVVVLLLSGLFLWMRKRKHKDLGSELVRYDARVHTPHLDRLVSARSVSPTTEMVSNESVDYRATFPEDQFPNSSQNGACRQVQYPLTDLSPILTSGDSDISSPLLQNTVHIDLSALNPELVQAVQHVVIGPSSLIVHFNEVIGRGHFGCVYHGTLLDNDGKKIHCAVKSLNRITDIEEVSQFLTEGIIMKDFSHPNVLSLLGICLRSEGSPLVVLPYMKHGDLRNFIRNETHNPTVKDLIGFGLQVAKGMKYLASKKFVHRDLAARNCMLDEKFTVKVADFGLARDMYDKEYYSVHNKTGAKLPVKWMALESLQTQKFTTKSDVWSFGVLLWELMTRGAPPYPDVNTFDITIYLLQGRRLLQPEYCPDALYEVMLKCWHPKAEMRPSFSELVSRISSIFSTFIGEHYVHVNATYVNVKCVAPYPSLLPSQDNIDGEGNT
Excerpt: (§1) Next, we evaluated the ability of the three unique VHH clones (1E7, 1A2, and 2G9) to bind murine and rhesus monkey MET by performing ELISA counter screens. […] The three clones were expressed and purified for additional testing to identify a lead VHH. Biolayer interferometry (BLI) was next used to determine the affinity of each VHH domain for MET (FIGS. 3B-D, Table 7). […] The BLI and dilution ELISA data combined determined that 1E7 was the lead clone to for development into a VHH-Fc targeting MET.
(§2) Dilution ELISA: MaxiSorp plates were prepared as described above. 50 μL of biotinylated human cMET, murine cMET, or rhesus macaque cMET was added to the wells. 1E7 monomeric VHH was serial diluted from 1 μM to 15.6 nM in PBS, 1% BSA < and 0.005% Tween20 and added to each well. Wells with protein but no 1E7 VHH were used as a negative control. 1E7 binding was detected, as described above.

rhesus macaque MET = molecular target: T2, rhesus macaque MET (Macaca mulatta, UniProt F7H1K4); test: Dilution ELISA counter screen on rhesus macaque MET; assay type: binding
T2 construct: biotin (biotinylated)
T2 sequence (F7H1K4 25-1381): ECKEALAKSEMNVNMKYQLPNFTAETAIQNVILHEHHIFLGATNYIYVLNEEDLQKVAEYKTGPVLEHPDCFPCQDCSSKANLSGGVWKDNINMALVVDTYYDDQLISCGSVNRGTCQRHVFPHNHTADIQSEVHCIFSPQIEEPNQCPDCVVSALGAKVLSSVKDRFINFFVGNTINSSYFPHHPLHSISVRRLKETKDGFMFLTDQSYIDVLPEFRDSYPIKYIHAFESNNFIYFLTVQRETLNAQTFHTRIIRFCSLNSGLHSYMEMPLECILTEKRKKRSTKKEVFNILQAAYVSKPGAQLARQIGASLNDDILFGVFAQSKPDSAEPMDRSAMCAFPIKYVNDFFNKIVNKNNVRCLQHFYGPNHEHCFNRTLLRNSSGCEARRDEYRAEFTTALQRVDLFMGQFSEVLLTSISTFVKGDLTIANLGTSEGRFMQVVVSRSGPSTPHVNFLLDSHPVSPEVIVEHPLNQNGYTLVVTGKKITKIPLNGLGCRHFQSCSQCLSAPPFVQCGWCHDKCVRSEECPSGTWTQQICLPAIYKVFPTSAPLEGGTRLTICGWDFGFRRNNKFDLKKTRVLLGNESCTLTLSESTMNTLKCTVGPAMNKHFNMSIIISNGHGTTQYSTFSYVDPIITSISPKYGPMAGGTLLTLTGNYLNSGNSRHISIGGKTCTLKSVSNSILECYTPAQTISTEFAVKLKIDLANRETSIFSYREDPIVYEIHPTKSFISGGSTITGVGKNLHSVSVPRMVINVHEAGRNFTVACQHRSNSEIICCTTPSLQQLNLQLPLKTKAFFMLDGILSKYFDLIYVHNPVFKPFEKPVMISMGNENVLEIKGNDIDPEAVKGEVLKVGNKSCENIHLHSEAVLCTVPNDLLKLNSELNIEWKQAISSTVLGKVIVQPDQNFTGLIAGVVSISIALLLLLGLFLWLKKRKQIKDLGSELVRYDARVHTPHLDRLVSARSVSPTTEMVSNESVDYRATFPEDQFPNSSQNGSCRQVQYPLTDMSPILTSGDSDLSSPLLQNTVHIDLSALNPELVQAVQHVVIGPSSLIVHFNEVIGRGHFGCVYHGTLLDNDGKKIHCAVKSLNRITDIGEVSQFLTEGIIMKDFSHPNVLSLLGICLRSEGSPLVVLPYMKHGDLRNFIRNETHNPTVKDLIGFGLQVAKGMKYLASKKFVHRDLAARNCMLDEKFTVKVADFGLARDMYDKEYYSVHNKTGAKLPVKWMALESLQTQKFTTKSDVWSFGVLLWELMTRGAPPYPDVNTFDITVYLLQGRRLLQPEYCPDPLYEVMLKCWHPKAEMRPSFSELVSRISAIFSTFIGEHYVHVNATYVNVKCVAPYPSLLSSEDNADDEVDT
Excerpt: as §1, §2

human MET [3] = molecular target: T3, human MET (Homo sapiens, UniProt P08581); test: Dilution ELISA on human MET; assay type: binding; set-up: Single-domain constructs specific to MET extracellular domain were identified from a naïve VHH antibody phage display library; biotin (biotinylated); details: for specificity for human versus rhesus macaque and murine MET: ELISA, FIG. 3A
T3 sequence (P08581 25-932 limits assumed): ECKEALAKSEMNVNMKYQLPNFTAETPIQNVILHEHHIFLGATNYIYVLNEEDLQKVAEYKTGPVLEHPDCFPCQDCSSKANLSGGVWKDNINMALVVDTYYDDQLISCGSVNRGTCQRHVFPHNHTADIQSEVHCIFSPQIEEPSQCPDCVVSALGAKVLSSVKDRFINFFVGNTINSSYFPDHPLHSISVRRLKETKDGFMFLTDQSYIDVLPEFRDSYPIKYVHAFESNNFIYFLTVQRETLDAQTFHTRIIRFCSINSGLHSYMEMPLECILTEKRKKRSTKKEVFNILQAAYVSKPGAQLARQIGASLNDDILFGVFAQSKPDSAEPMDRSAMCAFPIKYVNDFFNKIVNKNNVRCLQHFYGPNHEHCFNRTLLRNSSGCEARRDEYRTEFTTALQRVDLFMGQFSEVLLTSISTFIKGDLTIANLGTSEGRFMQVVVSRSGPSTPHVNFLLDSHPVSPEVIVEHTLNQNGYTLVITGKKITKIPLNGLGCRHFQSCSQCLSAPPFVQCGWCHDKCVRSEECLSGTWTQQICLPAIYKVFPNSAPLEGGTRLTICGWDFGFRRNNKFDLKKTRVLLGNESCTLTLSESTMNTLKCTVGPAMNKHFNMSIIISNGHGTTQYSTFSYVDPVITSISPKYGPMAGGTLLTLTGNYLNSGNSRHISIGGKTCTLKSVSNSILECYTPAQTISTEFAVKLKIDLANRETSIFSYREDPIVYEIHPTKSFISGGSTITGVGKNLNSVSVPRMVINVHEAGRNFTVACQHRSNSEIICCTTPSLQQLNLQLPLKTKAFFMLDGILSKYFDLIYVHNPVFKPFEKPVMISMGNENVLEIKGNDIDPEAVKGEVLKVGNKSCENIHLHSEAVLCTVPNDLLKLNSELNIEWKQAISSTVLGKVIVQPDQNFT
Excerpt: as §1, §2

human MET [4] = molecular target: T3, human MET; test: Biolayer interferometry (BLI) of VHH domains on human MET; assay type: binding; details: for Ka / Kd: BLI curve fit; for Ka: association rate; for binding affinity to human MET (in words): comparison of the three VHH clones
[5] = dissociation rate, unit not given

Molecule	effect on MET, AKT and ERK phosphorylation [1]	effect on phosphorylation of MET [2]	binding to murine MET (murine MET)	binding to rhesus macaque MET (rhesus macaque MET)	specificity for human versus rhesus macaque and murine MET (human MET [3])	Ka (human MET [4]; unit not given)	Kd (human MET [4]; [5])	Kd (human MET [4]; nM, read-out: KD)	binding affinity to human MET (in words) (human MET [4])	ELISA signal on human MET (human MET [3]; dilution ELISA, unpurified VHH serially diluted)	kon and koff compared to the other clones (human MET [4]; BLI)
CNC(=O)c1ccc(-c2cnc3ncc(Cc4ccc5ncccc5c4)n3n2)cc1F [capmatinib, reference compound]	blocked	effectively blocked									
B1			modest cross-reactivity	modest cross-reactivity	did not show clear specificity	1.000 × 10^4	1.500 × 10^−3	159 nM	high affinity; also recorded: weaker binding affinities		
B2			modest cross-reactivity; also recorded: minimal binding	modest cross-reactivity; also recorded: minimal binding		1.445 × 10^5	4.045 × 10^−2	27 nM	high affinity; also recorded: highest binding affinity	strongest MET signal; also recorded: saturating ELISA signals	highest kon and the lowest koff
B3			modest cross-reactivity	modest cross-reactivity	did not show clear specificity	1.865 × 10^5	2.869 × 10^−2	43 nM	high affinity; also recorded: weaker binding affinities		
